Measured values reported in patent US20220049008A1 (MULTITUDE, published 2022).
Several values for one entry are separate records, joined by “and”; a condition that tells them apart may be missing. Identical values can stand only once. One block for each binder: values may come before it.

Columns and labels:
[1] = biological target: T1, CD44 v7/8 (human CD44 v7/8 splice variant) on CD44+ cells (human, UniProt P16070 21-742); assay: flow cytometry on A253 cells; humanized HIS029, A253 cells
T1 construct: Endogenous protein on tumour cell lines (D562, A253, NCI-H520, BXPC3); no signal peptide limits are stated; also called CD44 variant 7/8; HCAM

[2] = biological target: T1, CD44 v7/8 (human CD44 v7/8 splice …); assay: flow cytometry on CD44+ A253 cells, antibody titration
[3] = biological target: T1, CD44 v7/8 (human CD44 v7/8 splice …); assay: cell-based or functional assay
[4] = biological target: T1, CD44 v7/8 (human CD44 v7/8 splice …); assay: flow cytometry on A253 cells; HIS029 (parental antibody), A253 cells

T1 sequence (P16070 21-742 limits assumed, change not shown): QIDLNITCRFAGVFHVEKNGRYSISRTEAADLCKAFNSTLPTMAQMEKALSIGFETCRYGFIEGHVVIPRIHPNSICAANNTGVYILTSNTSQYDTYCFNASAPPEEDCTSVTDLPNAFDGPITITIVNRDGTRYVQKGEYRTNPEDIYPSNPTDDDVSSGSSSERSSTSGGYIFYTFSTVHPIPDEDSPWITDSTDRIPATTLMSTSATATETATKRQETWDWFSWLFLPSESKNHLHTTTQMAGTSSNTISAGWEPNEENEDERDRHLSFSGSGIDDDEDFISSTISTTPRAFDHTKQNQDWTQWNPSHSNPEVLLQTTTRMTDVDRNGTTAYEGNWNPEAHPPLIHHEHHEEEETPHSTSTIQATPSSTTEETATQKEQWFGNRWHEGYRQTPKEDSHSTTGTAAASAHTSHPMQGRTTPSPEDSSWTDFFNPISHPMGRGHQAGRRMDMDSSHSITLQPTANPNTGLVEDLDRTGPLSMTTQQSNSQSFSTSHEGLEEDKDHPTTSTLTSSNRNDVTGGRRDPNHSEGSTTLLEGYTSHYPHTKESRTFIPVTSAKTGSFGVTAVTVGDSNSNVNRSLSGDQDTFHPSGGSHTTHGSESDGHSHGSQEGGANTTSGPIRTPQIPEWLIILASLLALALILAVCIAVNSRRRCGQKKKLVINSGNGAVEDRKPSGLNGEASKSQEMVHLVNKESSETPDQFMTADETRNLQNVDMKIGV

- Kd [1]: 36 nM
- EC50 (read off the curve) [2]: ~40 nM and ~60 nM
B1: Humanized HIS029 (antibody, V domains shown)
VH: QVQLVQSGSELKKPGASVKVSCKASGYTFTNYWINWVRQAPGQGLEWMGNIYPSDSYTNYNQKFKDRAVFSVDKSVSTAYLQISSLKAEDTAVYYCTKWGDSDYWGQGTTVTVSS
VL: DIQMTQSPSSLSASVGDRVTITCKASQDINRYLRWFQQKPGKSPKTLIYRANRLVDGVPSRFSGSGSGQDYTLTISSLQPEDFATYYCLQYDEFPFTFGQGTKLEIK
notes: also called humanized HIS029 antibody

B2: HIS029-vc-MMAE (other)
VH: QVHLQQPGAELVRPGASVKLSCKASGYTFTNYWINWVKQRPGQGLEWIGNIYPSDSYTNYNQKFKDKATLTVDKSSSTAYVHLSSPTSEDSAVYYCTKWGDSDYWGQGTTLTVSS
VL: DIKMTQSPSSMYASLGERVTITCKASQDINRYLRWFQQKPGKSPKTLIYRANRLVDGVPSRFSGSGSGQDYSLTISSLEYEDMGIYYCLQYDEFPFTFGSGTKLEIK
modifications: monomethyl auristatin E coupled through a maleimidocaproyl-Val-Cit-PAB linker by a thiol-based reaction; sites not stated
- cell viability, IC50 (A253 cells) [3]: 0.797 nM
- cell viability, IC50 (BXPC3 cells) [3]: 0.189 nM
- cell viability, IC50 (D562 cells) [3]: 0.63 nM
- cell viability, IC50 (NCI-H520 cells) [3]: 0.588 nM

- EC50 (read off the curve) [2]: ~40 nM
- Kd [4]: 35 nM
B3: HIS029 (antibody, V domains shown)
VH: B2 VH
VL: B2 VL
notes: Monoclonal antibody from a hybridoma, V regions amplified with mouse Ig primers; also called anti-CD44 v7/8 antibody; antibody clone HIS029
